The record followed here is paper PMC4699637, “Papillomavirus-Associated Tumor Formation Critically Depends on c-Fos Expression Induced by Viral Protein E2 and Bromodomain Protein Brd4”.

The target of data set [1] is T1, c-Jun (UniProt P05412 1-331). Description: EMSA; homodimer. The settings on record: protein: recombinant; chain copies: 2; label: 32P; blunt.
The target of data set [2] is T1, c-Jun. The data set can be described thus: competition; homodimer; 100-fold excess unlabeled vs N1. The settings on record: protein: recombinant; chain copies: 2; blunt.

T1 sequence (P05412 whole entry): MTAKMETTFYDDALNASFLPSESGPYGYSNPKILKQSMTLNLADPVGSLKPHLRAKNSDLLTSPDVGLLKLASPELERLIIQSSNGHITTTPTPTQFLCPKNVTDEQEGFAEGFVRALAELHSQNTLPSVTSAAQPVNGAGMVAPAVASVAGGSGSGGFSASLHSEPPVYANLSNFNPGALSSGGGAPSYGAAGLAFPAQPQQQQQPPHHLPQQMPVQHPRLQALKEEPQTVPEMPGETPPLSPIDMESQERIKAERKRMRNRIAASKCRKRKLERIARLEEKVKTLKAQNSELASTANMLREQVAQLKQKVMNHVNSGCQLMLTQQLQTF

B1: dAP CRPV URR WT (dsDNA)
DNA 1: GCATGCGATGACACATTACAC
DNA 2: GTGTAATGTGTCATCGCATGC
With B1, in data set [1], the binding result is “binds”.

B2: dAP CRPV URR mut (mdAP) (dsDNA)
DNA 1: GCATGCGACATATGTTACAC
DNA 2: GTGTAACATATGTCGCATGC
B2: the binding result in data set [2] was “no binding”.
